# B1: Full-length mouse LAG-3 fused to CFP or YFP, on Expi293F cells (receptor, UniProt Q61790 24-521, looked up)
# chain: GPGKELPVVWAQEGAPVHLPCSLKSPNLDPNFLRRGGVIWQHQPDSGQPTPIPALDLHQGMPSPRQPAPGRYTVLSVAPGGLRSGRQPLHPHVQLEERGLQRGDFSLWLRPALRTDAGEYHATVRLPNRALSCSLRLRVGQASMIASPSGVLKLSDWVLLNCSFSRPDRPVSVHWFQGQNRVPVYNSPRHFLAETFLLLPQVSPLDSGTWGCVLTYRDGFNVSITYNLKVLGLEPVAPLTVYAAEGSRVELPCHLPPGVGTPSLLIAKWTPPGGGPELPVAGKSGNFTLHLEAVGLAQAGTYTCSIHLQGQQLNATVTLAVITVTPKSFGLPGSRGKLLCEVTPASGKERFVWRPLNNLSRSCPGPVLEIQEARLLAERWQCQLYEGQRLLGATVYAAESSSGAHSARRISGDLKGGHLVLVLILGALSLFLLVAGAFGFHWWRKQLLLRRFSALEHGIQPFPAQRKIEELERELETEMGQEPEPEPEPQLEPEPRQL
# notes: whole, on cells; Two plasmids, one CFP and one YFP fusion, co-transfected for flow-FRET; also called mLAG-3^CFP; mLAG-3^YFP; not shown: CFP or YFP from pECFP / pEYFP plasmids
# Legend:
# [1] = target: Wild-type mouse LAG-3 domains 1 and 2 (D1D2) displayed on yeast as N-terminal fusion to Aga2 (mouse; Saccharomyces cerevisiae) (UniProt Q61790); test: yeast surface display titration, flow cytometry; monomeric D1D2 on yeast
# [2] = target: the molecule itself; test: flow-FRET in Expi293 cells; self-association
# Procedure: Flow cytometry-based Förster resonance energy transfer (flow-FRET) assays have been utilized for live cell detection of proximal protein associations at distances <100 Å and was thus used to assess LAG-3 dimerization.
# Expi293F cells (ThermoFisher Scientific) were transfected with a CFP:YFP:PEI ratio of 0.5:0.5:3 in a 24-well plate at 37° C. in 8% CO₂. Cells were analyzed after 36 hours using a BD LSRII flow cytometer. The 407 nm violet laser was used to excite CFP and the 488 nm blue laser was used to excite YFP. CFP was detected using a 450/50 bandpass filter after excitation with the violet laser and YFP was detected using a 530/30 bandpass filter after excitation with the blue laser.
Molecule,Kd [1] [nM],binding result [2]
C9B7W anti-mouse LAG-3 antibody,0.136,–
B1,–,binds

# — patent US20250198990A1 (Stanford University, published 2025)
